These results are taken from patent US20240368282A1 (BIOSCEPTRE AUST, published 2024).

In this assay the target is T1, dysfunctional P2X7 receptor (human, UniProt Q99572 1-595).
T1 construct: Endogenous on cancer cell lines (MOLM-13, JeKo-1); also called nfP2X7; nfP2X7 receptor
T1 sequence: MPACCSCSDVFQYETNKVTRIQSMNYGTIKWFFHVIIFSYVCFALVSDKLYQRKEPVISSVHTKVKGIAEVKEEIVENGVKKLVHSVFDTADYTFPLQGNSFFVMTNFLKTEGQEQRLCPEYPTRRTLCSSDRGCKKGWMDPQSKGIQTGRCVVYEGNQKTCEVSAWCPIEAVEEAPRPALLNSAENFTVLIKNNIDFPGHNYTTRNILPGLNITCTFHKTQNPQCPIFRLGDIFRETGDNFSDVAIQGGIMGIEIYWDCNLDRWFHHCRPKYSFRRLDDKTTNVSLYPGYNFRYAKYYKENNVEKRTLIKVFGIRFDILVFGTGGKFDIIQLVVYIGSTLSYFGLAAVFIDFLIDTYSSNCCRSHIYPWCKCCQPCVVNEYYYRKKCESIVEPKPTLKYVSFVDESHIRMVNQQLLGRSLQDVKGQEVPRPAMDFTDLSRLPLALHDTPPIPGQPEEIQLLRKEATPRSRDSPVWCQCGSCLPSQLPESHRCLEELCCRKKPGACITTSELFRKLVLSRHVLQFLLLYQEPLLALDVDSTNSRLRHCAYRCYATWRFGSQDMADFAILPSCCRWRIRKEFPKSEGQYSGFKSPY
The assay can be described thus: flow cytometry, anti-HIS-FITC, MOLM-13 cells. The procedure: Indirect staining of artificial proteins on MOLM-13 cells via anti-HIS staining. […] Histogram overlay of HIS-FITC positivity on MOLM-13. […] HIS-ab was used according to manufacturer with 1 μl per test, target cells were incubated with 50 μl of supernatant from Lenti-X™ 293T cells for 10 min at room temperature. Supernatant harvested 48 h after transfection.

B1: Orchestration molecule OR2-3 (nfP2X7), IgG1 format (antibody, V domains shown)
VH: EVQLLESGGGLVQPGGSLRLSCAASGFTFRNHDMGWVRQAPGKGLEWVSAISGSGGSTYYANSVKGRFTISRDNSKNTLYLQMNSLRAEDTAVYYCAEPKPMDTEFDYRSPGTLVTVSS
VL: DIQMTQSPSSLSASVGDRVTITCRASQYIYDYLNWYQQKPGKAPKLLIYAASYLQSGVPSRFSGSGSGTDFTLTISSLQPEDFATYYCQQYHHPSTFGQGTKVEIKR
notes: Tested as supernatant; also called OR2 paired to OR3
On to B1, for which the binding result was “binds”.
